The values below are quoted from earlier work in patent US9782344B2, “Stable glucagon peptide formulations” (ZP Opco, Inc., priority 2013, dated 2017).

Where two headings read alike, the source gives them in different places.

glucagon: the “behaviour in aqueous solution” value (pH below 3 or above 9) is on record as “readily dissolved”; the “behaviour in aqueous solution” value (pH between 4 and 8) was “precipitates readily”.
